From the supplement of paper PMC10567573

Experiment: protein stability index of a GFP-peptide fusion (GPS, HEK-293T) (PSI 1-6); higher = more stable
Settings: c terminus: native
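Also: lentivirally expressed fusion library, cells FACS-sorted into six equal-sized GFP/DsRed ratio bins, PSI computed from sequencing read fractions per bin weighted by bin number.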

B1: PSMB5 addP (peptide)
chain: DGWIRVSSDNVADLHEKYSGSTPP
protein stability index (parent: NP_002788.1): 4.78

B2: POLD2 addP (peptide)
chain: CQPISFSGFGAEDDDLGGLGLGPP
protein stability index (parent: NP_006221.1): 4.45

B3: SNF8 addP (peptide)
chain: LPALFTDLYSQEITAEEAREALPP
protein stability index (parent: NP_009172.2): 2.03
